Test results published in article PMC2172930.

Target: p85, the regulatory subunit of PI3-kinase (mouse (endogenous in NIH3T3)) (UniProt P26450)
Assay: co-IP

Chain of UniProt P26450 (P26450 whole entry): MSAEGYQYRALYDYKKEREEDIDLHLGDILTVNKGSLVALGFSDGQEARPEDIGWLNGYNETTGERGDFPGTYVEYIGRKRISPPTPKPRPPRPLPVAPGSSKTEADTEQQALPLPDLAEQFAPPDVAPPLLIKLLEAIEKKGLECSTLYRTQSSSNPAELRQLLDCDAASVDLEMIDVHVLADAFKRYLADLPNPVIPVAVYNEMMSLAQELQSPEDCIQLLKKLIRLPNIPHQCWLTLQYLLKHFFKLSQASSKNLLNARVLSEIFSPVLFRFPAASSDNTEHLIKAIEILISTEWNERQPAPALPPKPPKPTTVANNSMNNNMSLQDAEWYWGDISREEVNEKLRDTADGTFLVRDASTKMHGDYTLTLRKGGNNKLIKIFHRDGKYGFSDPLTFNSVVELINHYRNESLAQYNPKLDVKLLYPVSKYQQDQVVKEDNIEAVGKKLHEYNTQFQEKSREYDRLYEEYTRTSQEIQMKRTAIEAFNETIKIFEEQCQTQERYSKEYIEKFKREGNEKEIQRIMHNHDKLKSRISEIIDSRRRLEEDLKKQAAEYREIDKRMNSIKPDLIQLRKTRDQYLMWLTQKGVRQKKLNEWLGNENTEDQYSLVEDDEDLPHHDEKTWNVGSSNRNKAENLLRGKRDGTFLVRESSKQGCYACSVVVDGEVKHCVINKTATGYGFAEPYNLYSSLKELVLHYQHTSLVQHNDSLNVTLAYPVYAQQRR

increase of AR/p85 association on 0.001 nM R1881 against unstimulated cells: 38%
Substance: androgen receptor (110-kD classical murine AR of NIH3T3 cells) (from UniProt P19091 1-899)
